Columns and labels:
[1] = target: human ghrelin O-acyltransferase (hGOAT), FLAG-tagged, wild type (human) (UniProt Q96T53)
[2] = target: endogenous hGOAT of prostate cancer cells (human (endogenous in 22Rv1 and LNCaP)) (UniProt Q96T53); assay: confocal imaging of fluorescent ligand binding and uptake by cells

inhibition of hGOAT activity by ligand 15 [1]: 17 nM
percent of cells exhibiting ligand binding [2]: 100%
Substance: H-GS-Dap-Nal-1-LSPTK(SulfoCy5)-NH2 (ligand 15) (peptide)
